Ends that are not written are not given here. Me3 = trimethyllysine (Kme3)
T1: JMJD2A tudor domains
T1 sequence (O75164 whole entry, species assumed, looked up): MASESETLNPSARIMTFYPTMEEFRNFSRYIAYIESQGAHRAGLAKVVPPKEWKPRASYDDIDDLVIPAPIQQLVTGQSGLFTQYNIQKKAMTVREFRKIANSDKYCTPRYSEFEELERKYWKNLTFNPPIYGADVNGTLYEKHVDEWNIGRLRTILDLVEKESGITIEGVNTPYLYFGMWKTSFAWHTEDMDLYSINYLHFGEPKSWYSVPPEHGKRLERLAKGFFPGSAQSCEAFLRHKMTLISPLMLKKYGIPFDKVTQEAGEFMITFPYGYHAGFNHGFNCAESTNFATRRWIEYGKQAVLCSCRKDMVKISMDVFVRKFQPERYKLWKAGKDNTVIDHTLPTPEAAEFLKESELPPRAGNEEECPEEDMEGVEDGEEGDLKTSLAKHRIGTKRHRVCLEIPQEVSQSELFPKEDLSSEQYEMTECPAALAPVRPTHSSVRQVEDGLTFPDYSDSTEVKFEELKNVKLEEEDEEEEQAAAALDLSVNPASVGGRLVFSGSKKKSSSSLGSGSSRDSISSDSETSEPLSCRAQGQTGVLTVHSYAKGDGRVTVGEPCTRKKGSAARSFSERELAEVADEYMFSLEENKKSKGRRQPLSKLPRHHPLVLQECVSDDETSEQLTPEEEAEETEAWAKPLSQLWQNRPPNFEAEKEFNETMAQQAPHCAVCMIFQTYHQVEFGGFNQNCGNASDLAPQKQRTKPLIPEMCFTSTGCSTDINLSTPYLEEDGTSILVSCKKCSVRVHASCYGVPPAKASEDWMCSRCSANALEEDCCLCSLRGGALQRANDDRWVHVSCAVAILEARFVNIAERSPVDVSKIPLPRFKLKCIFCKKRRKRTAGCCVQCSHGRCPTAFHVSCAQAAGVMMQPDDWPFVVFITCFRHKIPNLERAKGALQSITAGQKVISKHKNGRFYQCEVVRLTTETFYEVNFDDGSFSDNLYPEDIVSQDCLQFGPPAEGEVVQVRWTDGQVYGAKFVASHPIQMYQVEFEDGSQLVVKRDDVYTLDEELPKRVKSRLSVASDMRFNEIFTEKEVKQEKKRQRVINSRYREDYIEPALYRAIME

B1: 10-mer H3G4 histone peptide (peptide)
peptide: ARTGQTARKS-OH
B2: 10-mer H3K4me3 histone peptide (peptide)
peptide: ARTK(Me3)QTARKS-OH

What was measured:
[1] = molecular target: JARID1A PHD3 domain (for ITC); test: ITC; H3G4 (5 mM) titrated to JARID1A (330 μM), H3G4 (3 mM) titrated to TAF3 (200 μM); 19 injections; Microcal Auto-iTC200; one set of sites model
[2] = molecular target: JARID1A PHD3 domain (for ITC); test: ITC; 350–600 μM H3K4me3 or H3C4me3 peptide titrated to 25–40 μM protein (JMJD2A–H3C4me3: 3 mM peptide to 200 μM JMJD2A); 19 injections; Microcal Auto-iTC200; one set of sites model; 5–7 repeats
JMJD2A tudor domains = molecular target: T1, JMJD2A tudor domains; test: as above
[3] = molecular target: SGF29 tandem tudor domain (for ITC); test: as above
Chain of SGF29 tandem tudor domain (for ITC) (Q96ES7 whole entry, the tested form may be a part): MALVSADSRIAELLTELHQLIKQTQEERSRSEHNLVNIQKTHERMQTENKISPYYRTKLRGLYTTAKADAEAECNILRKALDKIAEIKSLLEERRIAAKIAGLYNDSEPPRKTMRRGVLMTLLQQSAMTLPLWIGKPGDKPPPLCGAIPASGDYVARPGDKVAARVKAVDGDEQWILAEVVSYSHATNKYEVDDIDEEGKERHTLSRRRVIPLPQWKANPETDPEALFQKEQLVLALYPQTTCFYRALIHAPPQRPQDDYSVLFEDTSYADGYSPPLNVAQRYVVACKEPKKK

Row | Binder | Kd [1] [nM] | dH [1] [kcal/mol] | Kd [2] [nM] | dH [2] [kcal/mol] | Kd (JMJD2A tudor domains) [nM] | dH (JMJD2A tudor domains) [kcal/mol] | Kd [3] [nM] | dH [3] [kcal/mol]
1 | B1 | 88000 | -2.1 | – | – | – | – | – | –
2 | B2 | – | – | 94 | -11 | 940 | -13.1 | 1700 | -7.7

Source: paper PMC4673829, “Chemical basis for the recognition of trimethyllysine by epigenetic reader proteins” (Nature Communications, 2015)
